Data on 2 molecules can be found in patent CN106146662A (UNIV SUN YAT SEN, dated 2016).

By koff is commonly meant a measure of how fast the partners let go of each other.

The target of one experiment is T1, CD3-His蛋白(MP-5).
T1 chain: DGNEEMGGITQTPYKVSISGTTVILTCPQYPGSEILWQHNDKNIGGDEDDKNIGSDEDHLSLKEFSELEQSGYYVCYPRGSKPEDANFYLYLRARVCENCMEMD
The experiment in a line: BLI (Octet RED96) off-rate screen, sdAb-SASA from expression medium captured on BSA-coated biosensor, 100 nM CD3 in solution, 1:1 Langmuir model, 30°C. In general terms: BLI is a label-free optical method that tracks binding on a fibre tip over time.

Another experiment addresses CD3 on Jurkat cells. The experiment in a line: flow cytometry, culture supernatant on Jurkat cells. A general note: In flow cytometry, cells or beads pass a laser one at a time.

B1: C84 (VHH)
VHH: QVQLQESGGGLVQAGGYLRLSCAVSGRTFSSYAMGWFRQAPGKEREFVAAINWSGGSTYYVDSVKGRFTISRDNAKNTVYLQMNSLKPEDTAVYYCAASGLGYTIVSASEYDYWGQGTQVTVSS
notes: Llama sdAb tested as sdAb-SASA protein in crude expression medium / culture supernatant; 3 nowhere in its text; also called 抗CD3单域抗体; sdAb; not shown: SASA fusion partner from the pFASEBA vector (sdAb-SASA protein)
In the case of B1, the dissociation rate constant (koff) with CD3-His蛋白(MP-5) came to 2.84e-05 s⁻¹. Besides, in the experiment with CD3 on Jurkat cells, the MFI came out at 312 MFI.

B2: C62 (VHH)
VHH: QVQLQESGGGLVQAGGSLRLSCAASGRTFSNYHMGWFRQAPGKERELVAAISGSGGSTYYTDSVKGRFTISRNNAKNTMSLQMSNLKPEDTGVYYCTTPTEKGSSIDYWGQGTQVTVSS
notes: Llama sdAb tested as sdAb-SASA protein in crude expression medium / culture supernatant; 1 nowhere in its text; also called 抗CD3单域抗体; sdAb; not shown: SASA fusion partner from the pFASEBA vector (sdAb-SASA protein)
As for B2, in the experiment with CD3-His蛋白(MP-5), the off-rate constant (koff) stood at 5.32e-05 s⁻¹. The molecule further yielded an MFI with CD3 on Jurkat cells of 283 MFI.
